Experiment: yeast display, Sf9 membrane polyspecificity reagent, FACS + sequencing; frameworks hold sequencing errors
Outline: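 In a synthetic yeast display library (Saccharomyces cerevisiae BJ5465), nanobody expression was induced with galactose for 36–48 hours. FACS gates were set low and high (top ~1%) using anti-HA fluorescence for expression and streptavidin fluorescence for binding of the Sf9 membrane reagent. Each polyreactivity label is drawn from the gate of origin.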

| Sequence | polyreactivity (PSR sort gate) |
| --- | --- |
| QVQLVESGGGLVQAGGSLRLICAASGRTFGYNAMGWYRQAPGKEREFVAAISWSGGRTYYADSVKGRFTISRDNAKNTVYLQMNSLKPEHSAVYYCAAGFGDGPGNGYYTRYSWDDDYWGQGTQVTVSS | low polyreactivity |
| QVQLVESGGGLVQAGGSLRLICAASGRTFKYYAMGWYRQAPGKERELVATITWSGTSTNYADSVKRRFTISRDIGKNSVYLQMNSLKPEDSAVYYCAARSKRRNYDYWGQGTQVTVSS | high polyreactivity |
| QVQLVESGGGLVQAGGSLRLICAASGRTFNSNVMGRSRQAPGKERELVAAISGSSGSTRYADSVKGRFTISRDNAKNTVYLQMNSLKPEDTEVYYCAAYPLYRRRWTGDYWGQGTQVTVSS | high polyreactivity |
| QVQLVESGGGLVQAGGSLRLICAASGRTFRYNAMGWYSQPHRKERELFAAINGGGSTYYADTVKGRFTISRDNAKNTVFLQMKSLKPEDTAVYYCAAANWRRNDYRYRFDYWGQGTQVTVSS | high polyreactivity |
| QVQLVESGGGLVQAGGSLRLICAASGRTFWNYAMGWYRQAPGKERELVAVISFSDGSTYYADSVKGRFTISRDNAKNTVYLQMNSLKPEDTAVYYGAAKGPRRWGSGFDYWGQGTQVTVSS | low polyreactivity |
| QVQLVESGGGLVQAGGSLRLICAASGRTFYSYAMGWYRQAPGKERELVAAISSGGTTYYADSVKGRFTISRDNAKNTDYLQMNSLKPEDTAVYYCATSRAWRYRSYYWGQGTQVTVSS | high polyreactivity |
| QVQLVESGGGLVQAGGSLRLICAASGRTFYYYAMGWDRQAPGKERELVASISYSAGRTYADSVKGRFTISRDNAKNTVYLLMNSLKPEDTAVYYCAAALYVNPYNYGTARWYYYWGQGTQVTVSS | high polyreactivity |
| QVQLVESGGGLVQAGGSLRLICAASGRTLSGYAMGWYRQAPGKERELVAAISSDGRTYYADSVKGRFTISRDNAKNTVYLQMNSLKPEDTAVYYCAKVRRGSYGYWGQGTQVTVSS | high polyreactivity |
| QVQLVESGGGLVQAGGSLRLICAASGRTSVVNAMGWYRQAPGKERELVAAITSGGSTHYADSVKGRFTISRDNAKNTVYLQITSLKPEDTAGYYFNARDRRRTNLLDYWGQATQVTVSS | low polyreactivity |
| QVQLVESGGGLVQAGGSLRLICAASGSIFAGNAMGWYRQAPGKERELVADITSGDSTYYADSVKGRFTISRDNAKNTVYLQMNSLKPEDTAVYYCAADSWDSQVVSYEYWGQGTQVTVSS | low polyreactivity |
| QVQLVESGGGLVQAGGSLRLICAASGSIFAVNAMGWYRQAPGKERELVAAISRRGGSTYYADSVKGRFTISRDNAKITDYLQMNSLKPEDTAVYYCAKRWKATRARYDYWGQGTQVTVAS | high polyreactivity |
| QVQLVESGGGLVQAGGSLRLICAASGSIFDVNAMGWYRQAPWKERELVAAISDSGGSTYYADSVKGRFTISRDNAKITVYLQMNSLKPEDTAVYYCNAVWSWYNYDDFDYWGQGTQVTVSS | low polyreactivity |
| QVQLVESGGGLVQAGGSLRLICAASGSIFDWYDMGWYRQAPGKERELVAAITTGGITNYADSVKGRFTFSRDNAKNSVYLQMNSLKPEDTAVYYCNADFSVEFDYWGQGTQVNVSS | low polyreactivity |
| QVQLVESGGGLVQAGGSLRLICAASGSIFGGYAMGWYIQAPGKERELVARITNGGSTYYADSVKGRFTISRDNAKNTVYLQMNSLKPEDTAVYYCNADWYAYPYGYWGQGTQVTVST | low polyreactivity |
| QVQLVESGGGLVQAGGSLRLICAASGSIFGNYVMGWYRQAPGKEMELVAGISTRGGSTYYADSVKGRFTISRDNAKNTVYLQMNCLKPEDTAVYYCAAVPASYRYPMYYWGQGTQVTVSS | low polyreactivity |
| QVQLVESGGGLVQAGGSLRLICAASGSIFGRYAMGWYRQAPGKERELVAAITGSGGTTYYADSVKGRFTISRDNAKNTVYLQMNSLKPEDTAVYYCAADPQVYYSGRPRYDYWGQGTQVTVSS | high polyreactivity |
| QVQLVESGGGLVQAGGSLRLICAASGSIFGRYSMGWYRQAPGKERELVAAINYSGGRTYYADSVKGRVTISRDNAKNTVYLQMNSLKPEDTAVYYCAAAQFPDRNYNYWGQGTQVTVSS | high polyreactivity |
| QVQLVESGGGLVQAGGSLRLICAASGSIFGWNAMGWYRQAPGKERELVASITWSGGRTYYADSVKGRFTISRDNAKNTVYLQMNSLKPEDTAVYYCAADYKPTSRSNKYYYWGQGTQVTVSS | high polyreactivity |
| QVQLVESGGGLVQAGGSLRLICAASGSIFGYNAMVWYRQAPGKERELVAVINASGASTYYADSVKGRFTISRDNAKNTVYLHMNSLKPEDTAVYSCAKDPFPFPGGDYWGQGTQVTVSS | low polyreactivity |
| QVQLVESGGGLVQAGGSLRLICAASGSIFKYYAMGLYRQAPGKERDLVAANRWSGGSTYYADSVKGRFTISRDNAKNTVYLQMNRLKPEDTAVYYCAAEYFNQNTRQGYDYWGQGTQVTVSS | low polyreactivity |
| QVQLVESGGGLVQAGGSLRLICAASGSIFRSYSMGWYRQAPGKERELVAGINRSGASTYYADSVKGRFTISRDNAKNTVYLQMNSMKPEDTAVSYCNARAQRGGYNYWGQGTQVTVSS | high polyreactivity |
| QVQLVESGGGLVQAGGSLRLICAASGSIFTHNTMGWYRQAPGKERELVASIDSGASTNYADSVKGRFTISRDNAKNTVYLQMNSLKPEDTAVYYCAADDAKFRYRDDYWGQGTQVTVSS | low polyreactivity |

| Sequence | polyreactivity (PSR sort gate) |
| --- | --- |
| QVQLVESGGGLVQAGGSLRLICAASGSIFTPYAMGWYRQAPGKERELVAAISTSGGSTYYADSVKGRFTISRDNAKNTVYLQMNSLKPEDTAVYYCYTVYYSQREIYYWGYDSWGQGTQVTVSS | high polyreactivity |
| QVQLVESGGGLVQAGGSLRLICAASGSIFVLYAMGWYRTAPGKERELVAAINYDGASTYYADSVKGRFTISRDNANNTFYLQMNSLKPKDTAVYYCAADVSYPVIYEYDYGGQGTQVTVSS | low polyreactivity |
| QVQLVESGGGLVQAGGSLRLICAASGSIFYEYAMGWYRQAPGKEREFVASISWSGGITSYADSVKGRFTISRDNAKNTVYLQMNSLKPEDTAVYYCAADFSWYLYDYDYWGQGTQVTVSS | low polyreactivity |
| QVQLVESGGGLVQAGGSLRLICAASGSIFYRNAMGWYRQAPGKERELVAVITDGGTTSYADSVKGRFTISRDNAKNTVYLQMNSLKPEDTAVYYCAADRQPVYPSLGVYWDYGHDYWGQGTQVTVSS | low polyreactivity |
| QVQLVESGGGLVQAGGSLRLICAASGSIIGANAMGWSRQAPGKERELGAAITDNTSTTFYADSVKGRFTISRDIAKNTVYLQMNSLKPEDTAVYYCNADRAVVLSTPLWGEYDYWGQGTQVTVSS | low polyreactivity |
| QVQLVESGGGLVQAGGSLRLICAASGSILYRYAMGWYRQAPGKERELVASISWSDGSTYYADSVKGRFTISRDNAKNTLYLQMNSLKPEDTAVYYCAAKGWGSDSYYAYGYDYWGQGTQVTVSS | low polyreactivity |
| QVQLVESGGGLVQAGGSLRLICAASGSISTPYTMGWYRQAPGKERELVAAISWIGDTTSYADSVKGRFTISRDNAKNTVYLQMNSLKPEDTAVYYCNAEHRGYDYWGQGTQVTVSS | low polyreactivity |
| QVQLVESGGGLVQAGGSLRLICAASGSTFAQNTMGWYRQAPGKERELVATISDGGGSTYYADSVKGRFTISRDNAKNTVYLQMNSLKPEDTSVYYCNTDRFWPSDFWGQGTQVTVSS | low polyreactivity |
| QVQLVESGGGLVQAGGSLRLICAASGSTFARYAMGWYRQAPGKERELVAVIRSGGSTNYADSVKGRFTISRDNAKNTVYLQMNSMKTEDTAGAADQWTIHRWATYGYWGQGTQVTVSS | low polyreactivity |
| QVQLVESGGGLVQAGGSLRLICAASGSTFAYNDMGWYRQAPGTERELVADIRSGGNTNYADSVKGRFTISRDNAKNTVYLQMNSLKPEDTAVYYCATDGYRIDVYHPDYRYDYWGQGTQVTVSS | low polyreactivity |
| QVQLVESGGGLVQAGGSLRLICAASGSTFDQNVMGWYRQAPGKDRELVGTINFSGDSTYYADSVKGRFTISRDNAKNTVYLQMNSLKPEDPAVYYCAVDWGEYIDTSVKRDISYYWGQGTQVTVSS | low polyreactivity |
| QVQLVESGGGLVQAGGSLRLICAASGSTFEAYAMGWYRQAPGKDSELVAAIRSSGSTSYADSVKGRFTISRDNAKNTVYLQMKSLKPEDTALYYGAARVRGYPRYKRDYWGQGTQVTVSS | high polyreactivity |
| QVQLVESGGGLVQAGGSLRLICAASGSTFFYYAMGWYRQAPGKERELVARISGGGSTNYADSVKGRFTISRDNAKNTVYLKMNSLNPEDTAVYYCAADRYHYYRYSYGRYGYWGQCTQVTVSS | high polyreactivity |
| QVQLVESGGGLVQAGGSLRLICAASGSTFGANAMGWYRQAPGKEREFVAAISGSGTTTYYADSVKGRFTISRDNAKNTVYLQMNSLKPEDTPVYYCAKTRKAHWLEYWGQGTQVTVSS | low polyreactivity |
| QVQLVESGGGLVQAGGSLRLICAASGSTFGLNTMGWYRQAPGKDRELVAGITWSGGTTYYADSVKGRFTISRDNAKNTVYLQMNSLKPEDTAVYYCAAAVCDHYWYSRAYYYWGQGTQVTLSS | high polyreactivity |
| QVQLVESGGGLVQAGGSLRLICAASGSTFKWYAMGWYRQAPGKERELVAAISSSGGTTYYADSVKGRFTISRDNAKNTVYLQMNSLKPEDTAVYYCAKPYLYSGYGYWGQGTQVTVSS | high polyreactivity |
| QVQLVESGGGLVQAGGSLRLICAASGSTFLGYAMGWYRQAPGKERELVAAITYSAGSTYYADSVKGRFTISRDNAKNTVYLQMNSLKPEDTAVYYCAKRYSGYDHWGQGTQVTVSS | low polyreactivity |
| QVQLVESGGGLVQAGGSLRLICAASGSTFNGYVMGWYRKAPGKERELVAAISRSGGSTYYADSVKGRFTNSRDNAKNTVYLQMNSLKPEDTAVYDCAAAPPLAGLGGYYWGQGTQVTVSS | high polyreactivity |
| QVQLVESGGGLVQAGGSLRLICAASGSTFNIKAMGWYRQAPGKERELVAAISSRGGSTYYADSVKGRFTISRDNAKNTVYLQMNSLKPEDTAVYYCALAAGIPQRRYYYWGQGTQVTVSS | high polyreactivity |
| QVQLVESGGGLVQAGGSLRLICAASGSTFNYNAMGSSRQAPGKERELVAAISQTTSRTYYADSVKGRFTISRDNAKNTVYLQMNSLKPEDTAVYYCATKRWTRDRQRPRTQYYLFYYWGQGTQVTVSS | high polyreactivity |
| QVQLVESGGGLVQAGGSLRLICAASGSTFNYNAMGWYRQAPGKERELVAAISSSGGSTYYADSVKGRFTISRDNAKYTVYLQMNSLKREDTAVYYCAASGGYGQYNYWGQGTQVTVSS | low polyreactivity |

From the nanobody polyreactivity screen of Harvey et al. (2022)
